The target of assay [1] is T1, human CTLA-4 (Y166G and Y183G) expressed on CHO-K1.hCTLA-4 cells (human, UniProt P16410 36-223). Kind of assay: CELISA on CHO-K1.hCTLA-4 cells. As for the experimental part:
Binding of the humanized antibodies to hCTLA-4 was studied in CELISA format. CHO-K1.hCTLA-4 cells were seeded in culture medium (DMEM-F12 (Gibco) with 10% Fetal Bovine Serum (Hyclone) and Pen/Strep (Gibco)) in tissue culture plates and cultured at 37° C., 5% CO₂ and 95% humidity until they were confluent. Subsequently, culture medium was removed and cells were incubated for 1 hour at 37° C., 5% CO₂ and 95% humidity with purified hCTLA-4 antibodies (10 μg/ml and dilutions thereof). Next, cells were washed with PBS/0.05% Tween (PBST) and incubated for 1 hour at 37° C., 5% CO₂ and 95% humidity with goat-anti-human IgG-HRP (Southern Biotechnology) or goat-anti-mouse IgG-HRP (Southern Biotechnology). Subsequently, cells were washed 3 times with PBST and anti-hCTLA-4 immunoreactivity was visualized with TMB Stabilized Chromagen (Invitrogen). Reactions were stopped with 0.5 M H₂SO₄ and absorbances were read at 450 and 610 nm.

The target in assay [2] is T1, human CTLA-4 (Y166G and Y183G) …. The assay is described as follows: CELISA, blockade of biotinylated hCD80/Fc binding to CHO-K1.hCTLA-4 cells. The method, then:
CHO-K1.hCTLA-4 cells were seeded in tissue culture plates and incubated at 37° C., 5% CO₂ and 95% humidity in culture medium. Once the cells were confluent culture medium was removed and cells were incubated for 1 hour with the humanized hCTL4.27 antibody variants (10 μg/ml and dilutions thereof) at 37° C., 5% CO₂ and 95% humidity. […] Cells were then washed with PBST followed by addition of Streptavidin-HRP conjugate on the cells, which was incubated for 1 hour at 37° C., 5% CO₂ and 95% humidity. […] Reactions were stopped with 0.5 M H₂SO₄ and absorbances were read at 450 and 610 nm. […] IC50 values represent the concentration at which half of the inhibition is observed.

This note sets out measurements from patent US20180037654A1 (ADURO BIOTECH HOLDINGS EUROPE B V, published 2018).

The term EC50 denotes the concentration at which the effect is half-maximal. Lower therefore signals greater potency. Broadly, the IC50 is the point on the concentration scale where inhibition reaches its midpoint.

T1 sequence (P16410 36-223 Y201G/Y218G limits assumed): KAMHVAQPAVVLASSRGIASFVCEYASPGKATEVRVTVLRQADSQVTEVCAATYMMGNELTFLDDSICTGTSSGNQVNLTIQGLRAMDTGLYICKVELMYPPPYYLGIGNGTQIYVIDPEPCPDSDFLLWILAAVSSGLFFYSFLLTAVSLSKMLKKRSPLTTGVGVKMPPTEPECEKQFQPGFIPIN

B1: hCTLA4.27H1L1 (antibody, human IgG4 S228P, kappa, V domains shown)
VH: EVQLLQSGAVLARPGTSVKISCKASGYSFTTYWMNWVKQRPGQGLEWIGMIHPSDSETSLNQAFKDKAKLTAATSASIAYLEFSSLTNEDSAVYYCARMGRRNPYYFDYWGQGTLVTVSS
VL: DIQMTQSPSSLSASVGDRVTITCRPSENLYTNLAWYQQKPGKAPKLLLYGATNLADGVPSRFSGSGSGTDYTLTISSLQPEDFATYYCQHLWGTPFTFGQGTKLEIKR
notes: Humanized, human IgG4 (S228P) kappa; H1 read as hCTLA4.27VH1, L1 as hCTLA4.27VL1
B1: in assay [1], the midpoint of the response, the EC50, lay at 0.037 nM. The IC50 in assay [2] is 2.55 nM.

B2: hCTLA4.27H3L1 (antibody, human IgG4 S228P, kappa, V domains shown)
VH: EVQLVQSGAVVAKPGSSVKVSCKASGYSFTTYWMNWVRQAPGQGLEWMGMIHPSDSETSLNQAFKDRVTITADKSTSTAYMELSSLTSEDTAVYYCARMGRRNPYYFDYWGQGTTVTVSS
VL: DIQMTQSPSSLSASVGDRVTITCRPSENLYTNLAWYQQKPGKAPKLLLYGATNLADGVPSRFSGSGSGTDYTLTISSLQPEDFATYYCQHLWGTPFTFGQGTKLEIKR
notes: Humanized, human IgG4 (S228P) kappa; H3 read as hCTLA4.27VH3, L1 as hCTLA4.27VL1
With B2, the response in assay [1] was half-maximal at 0.07 nM (EC50). This molecule showed an IC50 in assay [2] of 2.52 nM.

B3: hCTLA4.27H5L1 (antibody, human IgG4 S228P, kappa, V domains shown)
VH: EVQLLQAGAVLARPGTSVKISCKASGYSFTTYWMNWVKQRPGKGLEWIGMIHPSDSETSLNQAFKDKAKLTAATSASIAYLEFSSLTNEDSAVYYCARIGRRNPYYFDYWGQGTLVTVSS
VL: DIQMTQSPSSLSASVGDRVTITCRPSENLYTNLAWYQQKPGKAPKLLLYGATNLADGVPSRFSGSGSGTDYTLTISSLQPEDFATYYCQHLWGTPFTFGQGTKLEIKR
notes: Humanized, human IgG4 (S228P) kappa; H5 read as hCTLA4.27VH5, L1 as hCTLA4.27VL1
In assay [1], B3 gave a 50% effective concentration (EC50) of 0.029 nM. Besides, in assay [2], the IC50 is 5.39 nM.

B4: hCTLA4.27H5L2 (antibody, human IgG4 S228P, kappa, V domains shown)
VH: EVQLLQAGAVLARPGTSVKISCKASGYSFTTYWMNWVKQRPGKGLEWIGMIHPSDSETSLNQAFKDKAKLTAATSASIAYLEFSSLTNEDSAVYYCARIGRRNPYYFDYWGQGTLVTVSS
VL: DIQMTQSPSSLSASVGDRVTITCRPSENLYTNLAWYQQKPGKAPKLLIYGATNLADGVPSRFSGSGSGTEFSLSISSLQPEDFATYYCQHLWGTPFTFGGGTKVEIKR
notes: Humanized, human IgG4 (S228P) kappa; H5 read as hCTLA4.27VH5, L2 as hCTLA4.27VL2
In assay [1], B4 registered an EC50 of 0.042 nM. In addition, the IC50 in assay [2] was 10.3 nM.

B5: hCTLA4.27H1L3 (antibody, human IgG4 S228P, kappa, V domains shown)
VH: EVQLLQSGAVLARPGTSVKISCKASGYSFTTYWMNWVKQRPGQGLEWIGMIHPSDSETSLNQAFKDKAKLTAATSASIAYLEFSSLTNEDSAVYYCARMGRRNPYYFDYWGQGTLVTVSS
VL: DIQMTQSPSSLSASVGDTVTITCRPSENLYTNLAWYQQKPGKAPKLLLYGATNLADGVPSRFSGSGSGTDYTLTISSLQSEDFATYYCQHLWGTPFTFGQGTKLEIKR
notes: Humanized, human IgG4 (S228P) kappa; H1 read as hCTLA4.27VH1, L3 as hCTLA4.27VL3
In assay [1], B5 had a 50% effective concentration (EC50) of 0.045 nM. This molecule also displayed an IC50 in assay [2] of 3.13 nM.

B6: hCTLA4.27H6L3 (antibody, human IgG4 S228P, kappa, V domains shown)
VH: EVQLLESGPELVRPGSSVKISCKASGYSFTTYWMNWVKQRPGKGLEWIGMIHPSDSETSLNQAFKDKVKLTAATSASIAYLEFSSLRNEDSAVYYCARMGRRNPYYFDYWGQGTLVTVSS
VL: DIQMTQSPSSLSASVGDTVTITCRPSENLYTNLAWYQQKPGKAPKLLLYGATNLADGVPSRFSGSGSGTDYTLTISSLQSEDFATYYCQHLWGTPFTFGQGTKLEIKR
notes: Humanized, human IgG4 (S228P) kappa; H6 read as hCTLA4.27VH6, L3 as hCTLA4.27VL3
The molecule B6 returned an EC50 in assay [1] of 0.028 nM. Also, in assay [2], the IC50 stood at 1.82 nM.

B7: hCTLA4.27H5L3 (antibody, human IgG4 S228P, kappa, V domains shown)
VH: EVQLLQAGAVLARPGTSVKISCKASGYSFTTYWMNWVKQRPGKGLEWIGMIHPSDSETSLNQAFKDKAKLTAATSASIAYLEFSSLTNEDSAVYYCARIGRRNPYYFDYWGQGTLVTVSS
VL: DIQMTQSPSSLSASVGDTVTITCRPSENLYTNLAWYQQKPGKAPKLLLYGATNLADGVPSRFSGSGSGTDYTLTISSLQSEDFATYYCQHLWGTPFTFGQGTKLEIKR
notes: Humanized, human IgG4 (S228P) kappa; H5 read as hCTLA4.27VH5, L3 as hCTLA4.27VL3
In assay [1], B7 gave an EC50 of 0.042 nM. For the same molecule, in assay [2], the IC50 was 2.57 nM.

B8: hCTLA4.27H6L5 (antibody, human IgG4 S228P, kappa, V domains shown)
VH: EVQLLESGPELVRPGSSVKISCKASGYSFTTYWMNWVKQRPGKGLEWIGMIHPSDSETSLNQAFKDKVKLTAATSASIAYLEFSSLRNEDSAVYYCARMGRRNPYYFDYWGQGTLVTVSS
VL: DIQMTQAPSSLSASVGDRVTITCRPSENLYTNLAWYQQKPGKAPKLLLYGATNLADGVPSRFSGSGSGTDYTLTISSLQAEDFATYYCQHLWGTPFTFGGGTKLEIKR
notes: Humanized, human IgG4 (S228P) kappa; H6 read as hCTLA4.27VH6, L5 as hCTLA4.27VL5
Molecule B8 showed a 50% effective concentration (EC50) in assay [1] of 0.036 nM. In assay [2], this molecule showed an IC50 of 2.57 nM.

B9: hCTLA4.27H1L2 (antibody, human IgG4 S228P, kappa, V domains shown)
VH: EVQLLQSGAVLARPGTSVKISCKASGYSFTTYWMNWVKQRPGQGLEWIGMIHPSDSETSLNQAFKDKAKLTAATSASIAYLEFSSLTNEDSAVYYCARMGRRNPYYFDYWGQGTLVTVSS
VL: DIQMTQSPSSLSASVGDRVTITCRPSENLYTNLAWYQQKPGKAPKLLIYGATNLADGVPSRFSGSGSGTEFSLSISSLQPEDFATYYCQHLWGTPFTFGGGTKVEIKR
notes: Humanized, human IgG4 (S228P) kappa; H1 read as hCTLA4.27VH1, L2 as hCTLA4.27VL2
In assay [1], B9 came in with a concentration for a half-maximal effect (EC50) of 0.04 nM. In assay [2], this molecule had an IC50 of 2.72 nM.

B10: hCTLA4.27H2L1 (antibody, human IgG4 S228P, kappa, V domains shown)
VH: EVQLVQSGAVLVKPGASVKVSCKASGYSFTTYWMNWVRQRPGKGLEWIGMIHPSDSETSLNQAFKDKVTITADESTSTAYMQLSSLRSEDTAVYYCARMGRRNPYYFDYWGQGTTVTVSS
VL: DIQMTQSPSSLSASVGDRVTITCRPSENLYTNLAWYQQKPGKAPKLLLYGATNLADGVPSRFSGSGSGTDYTLTISSLQPEDFATYYCQHLWGTPFTFGQGTKLEIKR
notes: Humanized, human IgG4 (S228P) kappa; H2 read as hCTLA4.27VH2, L1 as hCTLA4.27VL1
In assay [1], B10 displayed an EC50 of 0.042 nM. Further, in assay [2], the IC50 was 2.98 nM.

B11: hCTLA4.27H6L1 (antibody, human IgG4 S228P, kappa, V domains shown)
VH: EVQLLESGPELVRPGSSVKISCKASGYSFTTYWMNWVKQRPGKGLEWIGMIHPSDSETSLNQAFKDKVKLTAATSASIAYLEFSSLRNEDSAVYYCARMGRRNPYYFDYWGQGTLVTVSS
VL: DIQMTQSPSSLSASVGDRVTITCRPSENLYTNLAWYQQKPGKAPKLLLYGATNLADGVPSRFSGSGSGTDYTLTISSLQPEDFATYYCQHLWGTPFTFGQGTKLEIKR
notes: Humanized, human IgG4 (S228P) kappa; H6 read as hCTLA4.27VH6, L1 as hCTLA4.27VL1
For the molecule B11, the EC50 in assay [1] stood at 0.044 nM. The molecule also gave a concentration for half-maximal inhibition (IC50) in assay [2] of 2.06 nM.

B12: hCTLA4.27H5L5 (antibody, human IgG4 S228P, kappa, V domains shown)
VH: EVQLLQAGAVLARPGTSVKISCKASGYSFTTYWMNWVKQRPGKGLEWIGMIHPSDSETSLNQAFKDKAKLTAATSASIAYLEFSSLTNEDSAVYYCARIGRRNPYYFDYWGQGTLVTVSS
VL: DIQMTQAPSSLSASVGDRVTITCRPSENLYTNLAWYQQKPGKAPKLLLYGATNLADGVPSRFSGSGSGTDYTLTISSLQAEDFATYYCQHLWGTPFTFGGGTKLEIKR
notes: Humanized, human IgG4 (S228P) kappa; H5 read as hCTLA4.27VH5, L5 as hCTLA4.27VL5
Take B12: the concentration for a half-maximal effect (EC50) in assay [1] worked out at 0.035 nM. Moreover, the IC50 in assay [2] turned out to be 1.91 nM.

B13: hCTLA4.27H1L5 (antibody, human IgG4 S228P, kappa, V domains shown)
VH: EVQLLQSGAVLARPGTSVKISCKASGYSFTTYWMNWVKQRPGQGLEWIGMIHPSDSETSLNQAFKDKAKLTAATSASIAYLEFSSLTNEDSAVYYCARMGRRNPYYFDYWGQGTLVTVSS
VL: DIQMTQAPSSLSASVGDRVTITCRPSENLYTNLAWYQQKPGKAPKLLLYGATNLADGVPSRFSGSGSGTDYTLTISSLQAEDFATYYCQHLWGTPFTFGGGTKLEIKR
notes: Humanized, human IgG4 (S228P) kappa; H1 read as hCTLA4.27VH1, L5 as hCTLA4.27VL5
In the case of B13, the half-maximal effective concentration (EC50) in assay [1] turned out to be 0.046 nM. Further, the 50% inhibitory concentration (IC50) in assay [2] worked out at 3.44 nM.

B14: hCTLA4.27H2L3 (antibody, human IgG4 S228P, kappa, V domains shown)
VH: EVQLVQSGAVLVKPGASVKVSCKASGYSFTTYWMNWVRQRPGKGLEWIGMIHPSDSETSLNQAFKDKVTITADESTSTAYMQLSSLRSEDTAVYYCARMGRRNPYYFDYWGQGTTVTVSS
VL: DIQMTQSPSSLSASVGDTVTITCRPSENLYTNLAWYQQKPGKAPKLLLYGATNLADGVPSRFSGSGSGTDYTLTISSLQSEDFATYYCQHLWGTPFTFGQGTKLEIKR
notes: Humanized, human IgG4 (S228P) kappa; H2 read as hCTLA4.27VH2, L3 as hCTLA4.27VL3
With B14, the response in assay [1] was half-maximal at 0.051 nM (EC50). In assay [2], this molecule registered an IC50 of 2.97 nM.
